From patent US20130121915A1
Residue numbers refer to the chain shown, from its start.

Tests used:
[1] = system: wild type OprD (FadL-OprD with C-terminal two glycines and 6 histidines)
[2] = target: FhuA7/10-1 with histidine tag; experiment: cell-based or functional assay
[3] = target: T1, wild type OprD (FadL-OprD with C-terminal two glycines and 6 histidines)
T1 chain: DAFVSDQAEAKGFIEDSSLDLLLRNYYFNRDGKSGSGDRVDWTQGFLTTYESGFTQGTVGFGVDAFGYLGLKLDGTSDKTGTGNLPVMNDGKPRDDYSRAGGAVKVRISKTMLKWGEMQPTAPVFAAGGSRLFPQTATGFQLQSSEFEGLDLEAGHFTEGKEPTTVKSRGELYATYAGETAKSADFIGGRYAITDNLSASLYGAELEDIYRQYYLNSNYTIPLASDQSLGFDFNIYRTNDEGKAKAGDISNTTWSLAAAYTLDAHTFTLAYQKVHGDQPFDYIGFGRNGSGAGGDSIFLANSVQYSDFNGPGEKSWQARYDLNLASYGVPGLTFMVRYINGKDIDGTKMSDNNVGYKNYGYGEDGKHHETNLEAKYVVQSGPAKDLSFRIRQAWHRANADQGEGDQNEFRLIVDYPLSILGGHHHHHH

[4] = target: T2, native OPRD pseudomonas aeruginosa beta barrel channel polypeptide, expressed with surface antigen D15 signal peptide and a tag
T2 chain: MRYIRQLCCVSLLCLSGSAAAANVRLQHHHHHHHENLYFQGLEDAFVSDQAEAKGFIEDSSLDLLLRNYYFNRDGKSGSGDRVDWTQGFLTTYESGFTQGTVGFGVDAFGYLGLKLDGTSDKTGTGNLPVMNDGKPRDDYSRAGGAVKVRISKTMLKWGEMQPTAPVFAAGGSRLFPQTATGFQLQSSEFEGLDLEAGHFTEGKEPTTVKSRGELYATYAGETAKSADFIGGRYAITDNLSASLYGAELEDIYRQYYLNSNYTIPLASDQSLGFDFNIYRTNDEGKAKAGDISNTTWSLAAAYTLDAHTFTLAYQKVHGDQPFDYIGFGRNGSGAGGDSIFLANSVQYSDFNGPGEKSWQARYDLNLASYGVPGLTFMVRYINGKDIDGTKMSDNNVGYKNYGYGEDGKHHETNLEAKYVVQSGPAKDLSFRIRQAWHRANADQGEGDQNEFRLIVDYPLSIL

[5] = target: T3, OprD mutant L8 mmp7turk#3
T3 chain: T2 chain with G398A, K400S, N401L, Y402T, G403A, Y404G

[6] = target: T4, FhuA7/10-1 with histidine tag
T4 chain: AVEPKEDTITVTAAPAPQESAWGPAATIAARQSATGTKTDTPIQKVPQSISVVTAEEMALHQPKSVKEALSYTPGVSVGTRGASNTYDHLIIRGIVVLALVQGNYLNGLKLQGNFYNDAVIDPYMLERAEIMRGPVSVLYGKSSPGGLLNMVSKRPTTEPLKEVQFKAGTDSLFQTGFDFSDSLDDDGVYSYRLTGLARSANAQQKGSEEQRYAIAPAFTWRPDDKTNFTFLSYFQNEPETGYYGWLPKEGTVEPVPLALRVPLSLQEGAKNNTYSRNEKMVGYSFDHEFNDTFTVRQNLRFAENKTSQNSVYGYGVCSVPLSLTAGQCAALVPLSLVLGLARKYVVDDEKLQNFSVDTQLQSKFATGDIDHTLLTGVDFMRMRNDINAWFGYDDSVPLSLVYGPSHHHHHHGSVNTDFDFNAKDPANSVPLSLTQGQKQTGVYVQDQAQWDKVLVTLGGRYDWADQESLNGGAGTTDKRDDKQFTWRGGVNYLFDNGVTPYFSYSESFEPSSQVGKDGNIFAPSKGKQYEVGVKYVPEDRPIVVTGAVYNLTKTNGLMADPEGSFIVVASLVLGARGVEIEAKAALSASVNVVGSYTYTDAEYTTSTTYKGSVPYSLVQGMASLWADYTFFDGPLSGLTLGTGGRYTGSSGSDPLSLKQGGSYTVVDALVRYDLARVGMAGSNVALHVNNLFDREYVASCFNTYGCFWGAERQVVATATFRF

## enterokinase (Novagen, cat#69066-3)
OprD mutant L8rek#1
  proteolysis over time, gel bands: incubating enterokinase with the mutant L8rek#1 (SEQ ID NO: 22798) shows specific cleavage since band “a” disappears and band “b” becomes more apparent over time
[1]
  proteolysis over time, gel bands: Incubation of enterokinase with the wild type OprD yields a non specific band, that does not increase over time

## factor Xa (Novagen, cat#69036-3)
[1]
  proteolysis over time, gel bands: Incubation of Factor X enzyme with the wild type OPRD yields a few non specific bands
OprD mutant L8fxa#1
  proteolysis over time, gel bands: incubation of factor X with mutant L8fxa#1 (SEQ ID NO: 22788) shows specific cleavage, since bands “a” and “b” become more apparent with time

## human matrix metalloproteases seven (MMP-7, Calbiochem, cat #444270) (from UniProt P09237 95-267) (enzyme)
[2]
  inward ionic current, whole-cell patch clamp of HEK293T cells expressing FhuA7/10-1 after addition of MMP-7: 20000 >=

B1: human matrix metalloproteases seven (MMP-7, Calbiochem, cat #444270) (protein)
chain: YSLFPNSPKWTSKVVTYRIVSYTRDLPHITVDRLVSKALNMWGKEIPLHFRKVVWGTADIMIGFARGAHGDSYPFDGPGNTLAHAFAPGTGLGGDAHFDEDERWTDGSSLGINFLYAATHELGHSLGMGHSSDPNAVMYPTYGNGDPQNFKLSQDDIKGIQKLYGKRSNSRKK
[3]
  proteolysis, gel bands: Incubation of MMP7 with wild type OprD yields a few non specific bands, compared with the control sample held at the same temperature for 24 hours but with out the MMP7
[4]
  cleavage, Western blot: the native protein (solubilized in DDM) was not cleaved in the presence of MMP-7 (concentration 0.25 Units per 16 ug of total protein)
[5]
  proteolysis, gel bands: incubating mmp7 with the mutant L8 mmp7turk#3 (SEQ ID NO: 22836) shows cleavage as the main protein band disappears
[6]
  cleavage kinetics 0 to 720 min, Western blot and densitometry: the amount of uncleaved protein (˜81 kDa, indicated by ‘a’) decreases while the amount of the cleaved one increases (˜57 kDa, indicated by ‘b’); after 12 hours all His-tagged polypeptides (˜81 kDa) completely disappear along with the ˜57- and ˜37-kDa bands
  cleavage of membrane-integrated FhuA7/10-1, Western blot with anti-His5: Incubation of the membranes with human MMP-7 for 30 minutes at 37 °C resulted in the appearance of ˜57- and ˜37-kDa bands
